# US20240287161A1 (NATIONAL UNIVERSITY CORPORATION TOTTORI UNIVERSITY, published 2024)
# T1: HCoV-229E trimeric S protein (amino acids 12-1109) with T4 foldon, histidine tag and strep-tag (HCoV-229E, UniProt P15423 12-1112)
# T1 chain: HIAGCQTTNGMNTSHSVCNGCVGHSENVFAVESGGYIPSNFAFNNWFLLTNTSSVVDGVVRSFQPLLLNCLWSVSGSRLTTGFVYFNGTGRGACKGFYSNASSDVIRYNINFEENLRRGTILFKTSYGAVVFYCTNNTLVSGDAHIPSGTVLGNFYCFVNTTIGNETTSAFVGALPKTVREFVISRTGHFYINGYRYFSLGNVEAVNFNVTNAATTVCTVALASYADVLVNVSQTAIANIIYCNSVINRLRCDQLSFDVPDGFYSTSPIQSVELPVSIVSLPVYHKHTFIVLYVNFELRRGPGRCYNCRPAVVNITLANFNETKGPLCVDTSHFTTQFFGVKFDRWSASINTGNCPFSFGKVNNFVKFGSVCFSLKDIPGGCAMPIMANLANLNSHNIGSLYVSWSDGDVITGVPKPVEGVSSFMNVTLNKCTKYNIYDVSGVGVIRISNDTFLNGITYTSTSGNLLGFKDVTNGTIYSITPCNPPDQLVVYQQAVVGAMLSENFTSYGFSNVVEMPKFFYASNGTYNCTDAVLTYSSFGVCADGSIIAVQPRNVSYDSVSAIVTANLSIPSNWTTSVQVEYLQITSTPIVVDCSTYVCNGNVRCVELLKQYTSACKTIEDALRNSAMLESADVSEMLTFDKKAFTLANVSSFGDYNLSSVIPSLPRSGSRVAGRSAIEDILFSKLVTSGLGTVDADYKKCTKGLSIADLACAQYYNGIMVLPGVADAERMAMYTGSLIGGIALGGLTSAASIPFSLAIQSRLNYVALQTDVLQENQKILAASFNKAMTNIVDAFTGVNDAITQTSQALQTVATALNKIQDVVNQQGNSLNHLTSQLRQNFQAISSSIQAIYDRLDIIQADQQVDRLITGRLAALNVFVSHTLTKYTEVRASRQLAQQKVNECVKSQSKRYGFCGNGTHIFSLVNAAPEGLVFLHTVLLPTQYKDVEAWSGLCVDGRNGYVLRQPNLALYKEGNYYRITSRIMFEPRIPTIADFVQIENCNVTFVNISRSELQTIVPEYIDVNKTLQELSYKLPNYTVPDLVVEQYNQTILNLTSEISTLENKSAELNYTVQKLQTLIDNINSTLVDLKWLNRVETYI
# T2: HCoV-HKU1 trimeric S protein (amino acids 13-1293) with T4 foldon, histidine tag and strep-tag (HCoV-HKU1, UniProt Q5MQD0 13-1297)
# T2 sequence: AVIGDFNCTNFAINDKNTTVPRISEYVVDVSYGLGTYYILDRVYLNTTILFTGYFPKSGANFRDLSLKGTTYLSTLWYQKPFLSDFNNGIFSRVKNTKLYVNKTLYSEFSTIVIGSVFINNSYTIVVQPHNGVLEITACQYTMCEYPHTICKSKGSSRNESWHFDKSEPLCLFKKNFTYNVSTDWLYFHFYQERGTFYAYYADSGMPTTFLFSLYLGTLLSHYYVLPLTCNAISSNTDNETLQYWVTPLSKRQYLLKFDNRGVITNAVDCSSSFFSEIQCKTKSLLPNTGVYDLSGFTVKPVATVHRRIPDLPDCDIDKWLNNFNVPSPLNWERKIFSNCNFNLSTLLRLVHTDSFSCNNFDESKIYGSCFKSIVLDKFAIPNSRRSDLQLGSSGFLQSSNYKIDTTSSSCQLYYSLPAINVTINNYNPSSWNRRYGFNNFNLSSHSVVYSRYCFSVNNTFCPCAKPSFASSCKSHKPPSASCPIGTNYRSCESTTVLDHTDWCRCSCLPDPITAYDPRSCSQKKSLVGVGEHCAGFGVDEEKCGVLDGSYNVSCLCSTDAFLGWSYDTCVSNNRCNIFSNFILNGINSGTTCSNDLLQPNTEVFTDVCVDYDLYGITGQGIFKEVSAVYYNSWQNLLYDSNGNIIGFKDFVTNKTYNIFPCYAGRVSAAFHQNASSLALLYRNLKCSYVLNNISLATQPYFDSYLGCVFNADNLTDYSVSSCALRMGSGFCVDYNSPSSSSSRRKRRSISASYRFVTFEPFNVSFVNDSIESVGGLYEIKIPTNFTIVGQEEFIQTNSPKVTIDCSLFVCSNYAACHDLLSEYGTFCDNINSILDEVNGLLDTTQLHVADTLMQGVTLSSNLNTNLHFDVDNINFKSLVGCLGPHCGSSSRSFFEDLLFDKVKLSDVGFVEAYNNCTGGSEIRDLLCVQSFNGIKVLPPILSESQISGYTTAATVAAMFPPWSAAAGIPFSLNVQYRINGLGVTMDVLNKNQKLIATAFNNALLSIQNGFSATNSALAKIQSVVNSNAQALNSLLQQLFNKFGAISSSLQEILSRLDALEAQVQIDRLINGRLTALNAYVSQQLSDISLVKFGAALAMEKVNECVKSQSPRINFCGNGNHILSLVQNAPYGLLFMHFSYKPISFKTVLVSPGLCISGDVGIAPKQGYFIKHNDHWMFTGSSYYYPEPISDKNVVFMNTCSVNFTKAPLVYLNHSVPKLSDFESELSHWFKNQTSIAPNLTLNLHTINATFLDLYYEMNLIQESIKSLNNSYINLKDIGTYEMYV
# Key:
# [1] = target: T1, HCoV-229E trimeric S protein (amino …); test: ELISA on coated S-trimeric antigen, anti-human IgG-HRP [Human IgG3, NT-193]
# [2] = target: T2, HCoV-HKU1 trimeric S protein (amino …); test: as above
binder,measurement,setting,value
"NT-193, human IgG3 subclass (antibody, V domains shown) VH: EVQLQQWGAGLLKPSETLSLTCAVYGGSFSGYYWSWIRQPPGKGLEWIGEINHSGSTNYNPSLKSRVTISVDTSKNQFSLKLSSVTAADTAVYYCARGWDLDYYYGMDVWGQGTTVTVSS VL: DIRMTQSPSAMSASVGDRVTVTCRASQGIGNYLAWFQLKPGKVPKRLIYAASSLQSGVPARFSGGGSGTEFTLTISSLQPEDFATYYCLQHGFLPWTFGQGTKLEIK",binding result,[1],no binding (tested: 1000 ng/ml)
same,binding result,[2],no binding (tested: 1000 ng/ml)
